According to the RNAGym collection of RNA variant scans (doi:10.7554/elife.80360):

B1: Hairpin Ribozyme (parent)
chain: GUCCUCUUUCACGUGCGCGUGAAAGAGAGAAGUGAACCAGAGAAACACACGUUGUGGUAUAUUACCUGGUA

Variants of: B1
Assay: self-cleavage, relative activity (ratio to wild type); higher = more cleavage; co-transcriptional

Variant	self-cleavage
U5G A23C	0.431
U5G A23U	0.192
U5C G56C	0.159
C6G C18U	0.613
C6G C18G	0.395
C6G C18A	0.645
C6G A49G	0.286
C6G A49U	0.107
U5C C16U	0.71
U5C C16G	0.516
C6G A35C	0.499
U5C G68C	0.159
C6A A49C	0.112
C6A A49G	0.204
U5G C16U	0.269
U5G C16G	0.146
C6G A45C	0.163
U5A U33G	0.131
C6A G17U	0.553
U5A C6G	0.192
U5A C6U	0.228
U5A A59G	0.213
U5A A64G	0.154
U5G G54U	0.228

Variant	self-cleavage
U5G A24U	0.235
U5C G34C	1
U5C G34U	1.45
U5C G34A	0.78
U5A U63G	0.264
U5C C6U	0.318
C6G G13U	0.27
U5G G21C	0.177
C4U U53C	0.398
C6G C66U	0.173
C6G C66A	0.239
C6G C50G	0.109
C6G C50A	0.14
U5G C65A	0.268
U5G C65U	0.218
U5A A23G	0.377
U5G C50A	0.184
U5G C50G	0.165
C6A U63G	0.191
U5A G56C	0.0893
U5A G56U	0.206
U5A G17U	0.395
U5A C50G	0.0755
U5A C50A	0.161

Variant	self-cleavage
U5A C18A	0.525
U5A C18G	0.306
C6G A59C	0.0783
C6G A59G	0.121
U5A G15C	0.33
C6G A43C	0.11
U5A A49G	0.103
U5C G40U	0.19
U5C G40C	0.0912
U5C G40A	0.321
U5C G69U	0.186
C6G G17C	0.365
C6G G17A	0.491
C6A C37A	0.236
C6A C37U	0.505
U5G C6A	0.321
U5G C6U	0.151
U5G C6G	0.224
U5G A35U	0.156
U5A G32U	0.153
U5A G32C	0.0597
C6A A43U	0.131
U5G U70G	0.354
U5C G57A	0.0835

Variant	self-cleavage
U5C G57C	0.0878
U5G C12G	0.239
U5G C12U	0.529
C6G A71G	0.574
U5C G51A	0.737
C6A U33G	0.149
U5G U53C	0.0534
U5G G51C	0.221
U5G G51A	0.377
U5G G13A	0.245
U5C U9G	0.187
U5C U9A	0.418
U5G A30C	0.0771
U5G A30U	0
C6A A30G	0.131
C6A G19A	0.599
U5C G19C	0.435
U5C G19U	0.565
U5G A31G	0.17
U5G A31C	0.091
U5C G15A	0.675
U5C U63C	0.286
U5A U20G	0.566
U5A U20C	0.358

Variant	self-cleavage
U5G U7G	0.171
U5G U7C	0.143
C6A G68A	0.176
C4U U55G	0.157
U5C A64C	0.19
U5C A64U	0.0907
U5C A64G	0.587
U5A G13A	0.139
U5G A11U	0.0986
U5G A11G	0.335
U5C A30G	0.111
U5C A30C	0.154
U5C C18U	0.613
C6A G57A	0.107
C6A G57C	0.0868
C6A G57U	0.246
U5G A44G	0.177
U5G A44C	0.147
U5C C50A	0.0675
U5G A47U	0.0832
U5A G42C	0.106
U5A G42U	0.275
U5C A22U	0.732
U5C A22C	0.586

Variant	self-cleavage
C6G G29C	0.146
C6G G29A	0.138
C6A U53G	0.422
C6A A24U	0.487
U5G U8A	0.126
U5G G32C	0.091
U5A U55A	0.163
U5A U55G	0.147
U5A A30C	0.0813
C6A G40U	0.103
C6A G40C	0.109
C6A G40A	0.236
C6A U62C	0.157
C6A G42C	0.239
C6A	0.586
C6G	0.521
U5G U52C	0.596
U5G G27C	0.0408
U5G U60G	0.353
U5A G68A	0.146
U5A G68C	0.11
U5C A35G	0.358
C6A C50U	0.239
C6G G40C	0.0776

Variant	self-cleavage
C6G G40A	0.207
U5C U60C	0.549
U5C U60G	0.236
U5A A39C	0.139
U5G G25U	0.306
C6G G34A	1.02
U5C C65U	0.24
U5G U33C	0.0793
U5G U33A	0.17
U5A A11U	0.196
U5C C46G	0.0996
U5G U9G	0.147
U5G U9A	0.346
C6A A45C	0.12
C4U U7G	0.235
U5A C37A	0.0853
U5A C37U	0.291
U5A A41C	0.554
C6A C46G	0.189
C6A A31U	0.0881
C6A A31G	0.446
C6A A31C	0.1
U5G C66G	0.127
U5A U58C	0.615

Variant	self-cleavage
U5A U58A	0.387
C6A A71U	0.423
U5G A43G	0
U5G A28G	0.669
U5C A44U	0.0797
U5C A26G	1.26
U5G U62C	0.129
U5G U62A	0.124
C6G C10U	0.305
C6G G19C	0.328
C6G G19A	0.45
U5G G56A	0.0193
U5G G56C	0.124
C6A G51A	0.765
C6G A11G	0.456
C6G G32U	0.116
C6G G32A	0.106
C4U U67C	0.128
C4U U67G	0.143
U5C A28C	0.139
U5G G42A	0.0213
U5C G25U	0.28
U5C G25C	0.202
U5G C48G	0.0331

Variant	self-cleavage
U5G C48A	0.125
C6A A39G	0.243
C6A A39U	0.33
C6G A47C	0.235
C6A A41G	0.439
U5C U8G	0.429
C6A G15A	0.54
C6G G15U	0.706
C6G A36U	0.215
U5A G19C	0.245
U5A G19U	0.312
U5G C37A	0.23
U5G C37U	0.516
U5C A36U	0.348
U5A C38U	0.0767
U5A A44C	0.156
U5A A44G	0.121
U5G G19C	0.202
U5A U70A	0.286
U5A U70C	0.543
C6G A30G	0.14
C6G A30C	0.156
C4U U14C	0.184
C4U U14G	0.418

Variant	self-cleavage
C4U U14A	0.376
U5C C37G	0.205
U5C A39C	0.51
U5C C48A	0.122
U5G U67C	0.117
U5G U67A	0.275
C4U U8A	0.2
C6A G34C	1.08
U5G A22U	0.176
U5G A22C	0.24
U5G G29C	0.0639
C6G C65G	0.23
U5A C12U	0.314
C6A G13U	0.592
C6A G13A	0.494
U5A A26U	0.67
C6A U14A	0.612
C4U U20C	0.24
C4U U20A	0.281
C6A A23G	0.387
U5A U52A	0.646
C6G A23C	0.122
C4U U60G	0.299
C4U U62A	0.143

Variant	self-cleavage
C6A G56C	0.128
U5C C38U	0.298
U5G U63A	0.127
U5G U63G	0.0714
C6A A64G	0.444
U5A G25U	0.279
C6A U9G	0.419
C6G A41G	0.47
U5G C18A	0.37
U5G A36G	0.166
U5C G42A	0.133
C6G G21A	0.179
C6G A39G	0.197
C6A C12G	0.623
U5C U53G	0.448
U5A U53G	0.278
C6A G54A	0.342
C6A G54U	0.379
U5A A36C	0.168
C6A G25A	0.546
C6A A61U	0.182
C6A A61G	0.137
U5G A71G	0.207
U5C U62A	0.118

Variant	self-cleavage
C6G C38U	0.332
C6G C38G	0.0998
U5A C48U	0.104
U5A C66A	0.247
U5A A35U	0.295
U5A A35G	0.559
U5A U67C	0.111
U5A U67A	0.0927
U5A G29C	0.153
U5A A31C	0.156
U5A A31G	0.212
U5C G21C	0.6
U5C G21A	0.62
U5C G21U	0.593
U5A G57C	0.231
U5A G57A	0.154
U5C U52A	0.706
U5C A24U	0.229
U5C A59G	0.222
U5C A59U	0.0936
U5A G40A	0.17
U5G G34A	0.603
U5G G34C	0.886
U5C U70G	0.664

Variant	self-cleavage
U5C U70A	0.594
U5G C46G	0.243
U5G C46U	0.279
C4U U9C	0.22
C6G C37A	0.158
C6G C37G	0.142
U5G C10U	0.317
U5A G21U	0.322
C6G G25U	0.475
C6A U52C	0.619
C6A U52A	0.588
U5A A45C	0.161
U5G A59U	0.0694
C6A G69U	0.121
C6A G69C	0.236
C6G C48U	0.0659
C6G C16U	0.627
C4U U58G	0.218
U5C A71C	1.16
C6G A24G	0.337
C6G A24C	0.192
U5A C46G	0.232
C6A U58G	0.559
C6G A61C	0.0806

Variant	self-cleavage
C6A A59G	0.178
U5A U14G	0.233
C6A A22G	0.453
U5C U67G	0.245
C6A U8G	0.447
C6A A36C	0.393
C6A A36G	0.595
C6A A36U	0.384
U5A G34C	1.27
U5A G34A	0.435
U5A G34U	1.07
C6A C10A	0.404
C6A U67C	0.15
U5C A45C	0.0908
C6A A26U	0.364
C6A A26G	0.281
U5G A39U	0.11
U5G A39C	0.129
U5C G13C	0.47
U5A A22U	0.274
U5G U20G	0.238
U5G U20A	0.279
